Hydrolysis of S-2586 by the proteinase associated with plantar stratum corneum cells, Activity (%) data for 1 substance are collected here from patent US5834290.

The target in the assay is stratum corneum chymotryptic enzyme (SCCE), native, from human plantar stratum corneum (human).

Consider “soybean trypsin inhibitor (SBTI) (from UniProt P01070)”, for which the hydrolysis of S-2586 by the proteinase associated with plantar stratum corneum cells, Activity (%) is 6 % activity.
